Data on one substance can be found in US20140072613A1, “Compositions and Methods for Treating Cutaneous Scarring” (priority 2012, published 2014).

Common to all, as to assay: cell-based or functional assay
Experiment [1] has as its target GSK3α(h) (human) (UniProt P49840).
Experiment [2] addresses T1, TBK1(h) (human) (UniProt Q9UHD2).
T1 sequence (looked up): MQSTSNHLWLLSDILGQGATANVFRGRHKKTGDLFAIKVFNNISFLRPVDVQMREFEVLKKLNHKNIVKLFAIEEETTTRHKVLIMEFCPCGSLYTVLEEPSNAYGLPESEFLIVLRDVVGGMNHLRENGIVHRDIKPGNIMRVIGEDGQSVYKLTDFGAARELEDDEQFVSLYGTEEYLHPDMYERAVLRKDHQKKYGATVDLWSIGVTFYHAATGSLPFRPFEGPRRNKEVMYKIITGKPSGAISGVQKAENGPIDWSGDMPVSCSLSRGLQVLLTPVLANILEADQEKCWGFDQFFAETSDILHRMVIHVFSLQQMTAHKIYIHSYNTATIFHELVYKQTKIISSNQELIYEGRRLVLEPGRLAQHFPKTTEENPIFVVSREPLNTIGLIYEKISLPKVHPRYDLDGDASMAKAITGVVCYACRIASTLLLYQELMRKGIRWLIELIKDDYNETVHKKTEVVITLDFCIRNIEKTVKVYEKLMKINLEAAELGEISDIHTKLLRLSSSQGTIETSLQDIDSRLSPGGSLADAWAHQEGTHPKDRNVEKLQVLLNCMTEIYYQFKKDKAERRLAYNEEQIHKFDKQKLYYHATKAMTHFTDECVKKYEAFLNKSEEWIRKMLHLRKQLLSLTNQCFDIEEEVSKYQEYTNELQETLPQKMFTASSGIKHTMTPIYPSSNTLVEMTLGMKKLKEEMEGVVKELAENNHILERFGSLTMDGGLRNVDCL

The target in experiment [3] is cKit(D816V)(h) (human) (UniProt P10721).
cKit(D816V)(h) (human), sequence (P10721 544-976 D816V): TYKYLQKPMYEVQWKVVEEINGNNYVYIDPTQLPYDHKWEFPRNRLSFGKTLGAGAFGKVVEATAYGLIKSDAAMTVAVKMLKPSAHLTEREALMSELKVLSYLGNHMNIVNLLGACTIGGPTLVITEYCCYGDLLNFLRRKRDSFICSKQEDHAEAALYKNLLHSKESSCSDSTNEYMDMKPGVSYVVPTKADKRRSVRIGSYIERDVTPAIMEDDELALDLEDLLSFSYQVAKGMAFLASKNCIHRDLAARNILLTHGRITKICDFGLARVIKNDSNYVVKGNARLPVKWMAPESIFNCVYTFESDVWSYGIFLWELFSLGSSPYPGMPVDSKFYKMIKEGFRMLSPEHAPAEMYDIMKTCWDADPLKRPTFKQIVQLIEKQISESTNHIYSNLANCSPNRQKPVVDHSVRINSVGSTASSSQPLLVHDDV

GSK3α(h) (human), sequence (P49840 whole entry): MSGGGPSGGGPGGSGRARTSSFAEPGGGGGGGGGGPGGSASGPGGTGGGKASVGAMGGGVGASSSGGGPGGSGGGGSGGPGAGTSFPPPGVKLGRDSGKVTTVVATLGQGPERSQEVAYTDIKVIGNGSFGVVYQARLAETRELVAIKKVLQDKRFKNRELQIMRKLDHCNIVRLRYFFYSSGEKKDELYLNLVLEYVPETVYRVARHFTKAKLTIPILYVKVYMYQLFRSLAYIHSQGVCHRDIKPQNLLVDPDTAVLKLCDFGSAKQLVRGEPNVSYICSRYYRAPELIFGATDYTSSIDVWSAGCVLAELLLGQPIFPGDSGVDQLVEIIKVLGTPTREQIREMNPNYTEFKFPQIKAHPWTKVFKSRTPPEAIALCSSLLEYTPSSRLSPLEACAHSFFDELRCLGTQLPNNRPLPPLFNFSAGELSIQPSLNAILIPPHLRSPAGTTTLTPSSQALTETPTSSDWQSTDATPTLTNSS

Take MMI-0500 (peptide): the % activity, 100 µM was found to be 175% in experiment [1], 16% in experiment [2] and 30% in experiment [3].
